One assay addresses T1, 4H678-AA.
T1 chain: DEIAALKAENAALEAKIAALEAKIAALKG
The experiment in a line: two-hybrid library CCmax.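 Further: natural log of median RNA to DNA barcode read ratio; higher means stronger binding.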 The following applies: mean of both orientations.

A further assay concerns the target T2, 4H3427-AA.
T2 chain: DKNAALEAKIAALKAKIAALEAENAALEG
Nature of the assay: two-hybrid library CCmax.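 Further: natural log of median RNA to DNA barcode read ratio; higher means stronger binding.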 Conditions: mean of both orientations.

Another assay deals with T3, 4H3655-AA.
T3 chain: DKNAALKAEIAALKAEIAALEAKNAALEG
The experiment in a line: two-hybrid library CCmax.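 Further: natural log of median RNA to DNA barcode read ratio; higher means stronger binding.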 Conditions: mean of both orientations.

For a further assay, the target named is T4, 4H3627-AA.
T4 chain: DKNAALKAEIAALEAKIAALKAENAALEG
Nature of the assay: two-hybrid library CCmax.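 Further: natural log of median RNA to DNA barcode read ratio; higher means stronger binding.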 The following applies: mean of both orientations.

The target of the next assay is T5, 4H3844-AA.
T5 chain: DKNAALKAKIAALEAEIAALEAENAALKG
The experiment in a line: two-hybrid library CCmax. Conditions: mean of both orientations.

The target of a further assay is T6, 4H454-AA.
T6 chain: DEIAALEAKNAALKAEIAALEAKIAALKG
The experiment in a line: two-hybrid library CCmax. Conditions: mean of both orientations.

The target of a further assay is T7, 4H881-AA.
T7 chain: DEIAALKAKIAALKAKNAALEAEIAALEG
The experiment in a line: two-hybrid library CCmax. Conditions: mean of both orientations.

The target of a further assay is T8, 4H780-AA.
T8 chain: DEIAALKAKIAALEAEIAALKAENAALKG
Nature of the assay: two-hybrid library CCmax. Conditions: mean of both orientations.

A further assay concerns the target T9, 4H906-AA.
T9 chain: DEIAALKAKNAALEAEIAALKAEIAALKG
Nature of the assay: two-hybrid library CCmax. The following applies: mean of both orientations.

The target of another assay is T10, 4H717-AA.
T10 chain: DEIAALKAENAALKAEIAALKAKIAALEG
The experiment in a line: two-hybrid library CCmax. Conditions: mean of both orientations.

A further assay concerns the target T11, 4H993-AA.
T11 chain: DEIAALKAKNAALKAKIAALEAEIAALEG
Nature of the assay: two-hybrid library CCmax. Conditions: mean of both orientations.

In a further assay the target is T12, 4H566-AA.
T12 chain: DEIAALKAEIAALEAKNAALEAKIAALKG
Nature of the assay: two-hybrid library CCmax. Conditions: mean of both orientations.

The next assay deals with T13, 4H3921-AA.
T13 chain: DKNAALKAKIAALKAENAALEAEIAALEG
Nature of the assay: two-hybrid library CCmax. The following applies: mean of both orientations.

The target of a further assay is T14, 4H342-AA.
T14 chain: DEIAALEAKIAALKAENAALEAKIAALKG
Nature of the assay: two-hybrid library CCmax. The following applies: mean of both orientations.

For the next assay, the target named is T15, 4H429-AA.
T15 chain: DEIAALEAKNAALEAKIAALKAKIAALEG
Nature of the assay: two-hybrid library CCmax. The following applies: mean of both orientations.

The next assay addresses T16, 4H794-AA.
T16 chain: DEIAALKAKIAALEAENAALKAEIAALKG
The experiment in a line: two-hybrid library CCmax.

For the next assay, the target named is T17, 4H605-AA.
T17 chain: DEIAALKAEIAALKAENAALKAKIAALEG
Nature of the assay: two-hybrid library CCmax. Conditions: mean of both orientations.

A further assay has as its target T18, 4H335-AA.
T18 chain: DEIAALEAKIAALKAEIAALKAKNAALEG
The experiment in a line: two-hybrid library CCmax.

A further assay concerns the target T19, 4H3343-AA.
T19 chain: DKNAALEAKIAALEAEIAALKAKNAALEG
Nature of the assay: two-hybrid library CCmax.

In the next assay the target is T20, 4H317-AA.
T20 chain: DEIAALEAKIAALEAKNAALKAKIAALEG
The experiment in a line: two-hybrid library CCmax.

A further assay has as its target T21, 4H48-AA.
T21 chain: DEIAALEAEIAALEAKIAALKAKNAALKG
The experiment in a line: two-hybrid library CCmax. The following applies: mean of both orientations.

The target in another assay is T22, 4H3606-AA.
T22 chain: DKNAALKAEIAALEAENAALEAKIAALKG
Nature of the assay: two-hybrid library CCmax. The following applies: mean of both orientations.

The next assay concerns the target T23, 4H906-bN.
T23 chain: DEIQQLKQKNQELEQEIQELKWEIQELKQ
The experiment in a line: two-hybrid library CCNG1.

The next assay deals with T24, 4H850-bN.
T24 chain: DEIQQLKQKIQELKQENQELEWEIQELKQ
Nature of the assay: two-hybrid library CCNG1.

Another assay addresses T25, 4H446-AA.
T25 chain: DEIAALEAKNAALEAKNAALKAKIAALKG
The experiment in a line: two-hybrid library CCmax. The following applies: mean of both orientations.

Another assay addresses T26, 4H432-AA.
T26 chain: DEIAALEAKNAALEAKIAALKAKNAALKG
The experiment in a line: two-hybrid library CCmax. Conditions: mean of both orientations.

Another assay has as its target T27, 4H63-AA.
T27 chain: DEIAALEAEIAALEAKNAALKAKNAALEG
The experiment in a line: two-hybrid library CCmax. Conditions: mean of both orientations.

A further assay addresses T28, 4H3974-AA.
T28 chain: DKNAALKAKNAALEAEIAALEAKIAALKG
The experiment in a line: two-hybrid library CCmax.

Another assay addresses T29, APC9291-AA.
T29 chain: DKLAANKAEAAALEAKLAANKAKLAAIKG
Nature of the assay: two-hybrid library CCmax.

A further assay addresses T30, APC9806-AA.
T30 chain: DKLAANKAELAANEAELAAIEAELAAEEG
Nature of the assay: two-hybrid library CCmax. The following applies: mean of both orientations.

The target in a further assay is T31, 4H497-AA.
T31 chain: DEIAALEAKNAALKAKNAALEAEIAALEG
Nature of the assay: two-hybrid library CCmax. Conditions: mean of both orientations.

A further assay concerns the target T32, 4H3939-AA.
T32 chain: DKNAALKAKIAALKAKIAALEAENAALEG
The experiment in a line: two-hybrid library CCmax. Conditions: mean of both orientations.

The next assay concerns the target T33, 4H675-AA.
T33 chain: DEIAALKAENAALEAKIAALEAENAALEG
Nature of the assay: two-hybrid library CCmax. The following applies: mean of both orientations.

For a further assay, the target named is T34, 4H656-AA.
T34 chain: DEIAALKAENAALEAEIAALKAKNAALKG
The experiment in a line: two-hybrid library CCmax. The following applies: mean of both orientations.

For a further assay, the target named is T35, 4H478-AA.
T35 chain: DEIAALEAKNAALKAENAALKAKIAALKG
The experiment in a line: two-hybrid library CCmax. Conditions: mean of both orientations.

Another assay deals with T36, 4H971-AA.
T36 chain: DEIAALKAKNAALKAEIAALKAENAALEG
Nature of the assay: two-hybrid library CCmax. The following applies: mean of both orientations.

The target in a further assay is T37, 4H3920-AA.
T37 chain: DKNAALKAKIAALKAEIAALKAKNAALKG
The experiment in a line: two-hybrid library CCmax.

In a further assay the target is T38, 4H428-AA.
T38 chain: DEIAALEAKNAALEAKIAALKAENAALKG
Nature of the assay: two-hybrid library CCmax. Conditions: mean of both orientations.

The target of the next assay is T39, 4H2949-AA.
T39 chain: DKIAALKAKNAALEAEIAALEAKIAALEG
Nature of the assay: two-hybrid library CCmax.

The target of a further assay is T40, 4H3112-AA.
T40 chain: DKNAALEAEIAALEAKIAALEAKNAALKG
The experiment in a line: two-hybrid library CCmax. The following applies: mean of both orientations.

Another assay deals with T41, 4H483-AA.
T41 chain: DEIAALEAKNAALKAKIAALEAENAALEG
The experiment in a line: two-hybrid library CCmax.

Read-outs that look alike come from different tables or passages of the source.

B1: 4H335-AA (peptide)
chain: DEIAALEAKIAALKAEIAALKAKNAALEG
In the case of B1, the interaction score in the assay with 4H678-AA is -1.15; with 4H3427-AA, -0.982; with 4H3655-AA it was 0.662; in the assay with 4H3627-AA it was 1.23; with 4H3844-AA, 1.22; with 4H454-AA it was 0.512. Also, the interaction score with 4H881-AA was -1.54; in the assay with 4H780-AA, -0.326; in the assay with 4H906-AA, -1.22; with 4H717-AA, -1.46; with 4H993-AA it was -0.48; with 4H566-AA, -1.09. The interaction score in the assay with 4H3921-AA is -0.804; with 4H342-AA, -0.154; in the assay with 4H429-AA, -0.695; in the assay with 4H794-AA (mean of both orientations) it was -1.3; with 4H605-AA, -1.51; with 4H335-AA, 1.81.

B2: 4H317-AA (peptide)
chain: DEIAALEAKIAALEAKNAALKAKIAALEG
For the molecule B2, the interaction score with 4H678-AA is 0.755; with 4H3427-AA, 1.23; with 4H3655-AA it was -0.949; in the assay with 4H3343-AA (mean of both orientations), -1.56; with 4H3627-AA, -0.771; with 4H3844-AA, -0.686. Further, the interaction score with 4H454-AA was -1.04; with 4H881-AA, 1.38; with 4H317-AA, 1.28; with 4H780-AA, -1.52; with 4H906-AA, 0.51; with 4H717-AA it was -1.63. The interaction score was -1.11 with 4H993-AA; 1.74 with 4H566-AA; 1.81 with 4H3921-AA; 2.15 in the assay with 4H342-AA; -0.459 with 4H429-AA; 0.104 with 4H794-AA (mean of both orientations). The interaction score was 0.228 with 4H48-AA, -0.441 with 4H605-AA, -0.361 with 4H335-AA (mean of both orientations) and 2.23 with 4H3606-AA.

B3: 4H850-bN (peptide)
chain: DEIQQLKQKIQELKQENQELEWEIQELKQ
Take B3: the interaction score with 4H906-bN was -0.386; in the assay with 4H850-bN, 0.186.

B4: 4H3974-AA (peptide)
chain: DKNAALKAKNAALEAEIAALEAKIAALKG
In the case of B4, the interaction score was -0.724 with 4H446-AA, -0.198 with 4H432-AA, -0.932 in the assay with 4H63-AA and -0.00837 with 4H3974-AA.

B5: APC9291-AA (peptide)
chain: DKLAANKAEAAALEAKLAANKAKLAAIKG
Regarding B5, the interaction score with APC9291-AA and with APC9806-AA was -1.78 throughout.

B6: 4H3920-AA (peptide)
chain: DKNAALKAKIAALKAEIAALKAKNAALKG
As for B6, the interaction score was -1.9 with 4H497-AA; -0.87 with 4H3939-AA; -1.22 with 4H675-AA; -1.01 with 4H656-AA; -1.71 with 4H478-AA; -1.64 with 4H971-AA. Further, the interaction score is -1.57 with 4H3920-AA and -0.945 with 4H428-AA.

B7: 4H2949-AA (peptide)
chain: DKIAALKAKNAALEAEIAALEAKIAALEG
In the case of B7, the interaction score with 4H678-AA is 1.69; with 4H2949-AA it was 1.3; with 4H3427-AA it was -0.95; in the assay with 4H3655-AA, -1.3; with 4H3343-AA (mean of both orientations), -1.48; with 4H3627-AA, -1.38. Moreover, the interaction score was -1.79 with 4H3844-AA; 1.98 with 4H454-AA; 1.71 in the assay with 4H881-AA; 1.47 with 4H317-AA (mean of both orientations); -1.49 in the assay with 4H780-AA; -1.01 with 4H906-AA. Further, the interaction score with 4H717-AA was -0.385; with 4H993-AA it was 1.65; with 4H566-AA, -0.649; with 4H3921-AA it was 0.152; with 4H342-AA, 0.399; with 4H429-AA it was 1.91. Also, the interaction score with 4H794-AA was -1; with 4H48-AA, -0.564; with 4H605-AA it was -0.239; with 4H3112-AA it was -0.654; with 4H335-AA (mean of both orientations), -0.276; with 4H3606-AA it was -0.156.

B8: 4H3343-AA (peptide)
chain: DKNAALEAKIAALEAEIAALKAKNAALEG
Regarding B8, the interaction score in the assay with 4H678-AA is -1.08; in the assay with 4H3427-AA it was -0.88; with 4H3655-AA it was -1.03; with 4H3343-AA, 1.37; with 4H3627-AA it was -0.363; in the assay with 4H3844-AA it was 0.2. Besides, the interaction score with 4H454-AA was -0.866; with 4H881-AA it was -1.72; with 4H780-AA it was -1.16; in the assay with 4H906-AA, -1.17; in the assay with 4H717-AA it was -1.27; with 4H993-AA, -1.4. In addition, the interaction score was -1.55 in the assay with 4H566-AA; -1.44 in the assay with 4H3921-AA; -1.13 with 4H342-AA; -1.22 with 4H429-AA; -1.33 with 4H794-AA (mean of both orientations); -0.868 in the assay with 4H48-AA. The values for the interaction score with 4H605-AA, with 4H335-AA (mean of both orientations) and in the assay with 4H3606-AA were -1.38, 0.806 and -1.94, respectively.

B9: 4H483-AA (peptide)
chain: DEIAALEAKNAALKAKIAALEAENAALEG
Consider B9, for which the interaction score in the assay with 4H483-AA was -2.02; with 4H63-AA, -1.11.

The values are drawn from PMC10397247.
